Test [1] has as its system zfTac3ra. In words: Receptor transactivation assay, CRE-Luc reporter (PKA activation), COS-7 cells expressing zfTac3ra. The conditions noted are these: mean ± SEM. The format is cell-based, zebrafish. On the procedure: (§1) In order to study the signaling pathways of the novel zebrafish NKBs, the entire coding regions of zftac3ra (denoted by SEQ ID NO:6) or zftac3rb (denoted by SEQ ID NO:7), or the cDNA clone for human NK3R (obtained from the Missouri S&T cDNA Resource Center, were inserted into pcDNA3.1 (Invitrogen). The luciferase assay was conducted according to Biran et al., 2008 [4] COS-7 cells were grown in DMEM supplemented with 10% FBS, 1% glutamine, 100 U/ml penicillin, and […] streptomycin (Biological Industries) under 5% CO2 until confluent. Cotransfection of either pc-zftac3ra, pc-zftac3rb or pc-Htac3r (at 3 μg/plate), a reporter plasmid (at 2 μg/plate), and pCMV-β-galactosidase (at 1 μg/plate) was carried out with FuGENE 6.0 reagent (Roche). The cells were serum starved for 36 h, stimulated with vehicle or various concentrations of either human (Sigma) or zebrafish NKBs for 6 h, and then harvested and analyzed. Lysates prepared from the harvested cells were assayed for both luciferase activity and β-galactosidase activity, which was used as an internal standard to normalize the luciferase activity directed by the test plasmid. Transfection experiments were performed in triplicate with three independently isolated sets. Protein structure prediction of zebrafish NKBa, NKBb or NKF were performed on I-Tasser servers.
(§2) The response, binding selectivity and signal transduction pathways of the novel tachykinin receptors to their agonists were evaluated by functional expression analysis, using COS-7 cells.
(§3) The NKB analogues (i.e. the NKBa-analog, NKBb-analog and NKF-analog, as denoted by SEQ ID NO. 44-46) were first analyzed in comparison to their native forms in a transactivation assay, using reporter genes for specific signal transduction pathways. To validate the specificity of the serum-responsive element (SRE)-Luc and cAMP-responsive element (CRE)-Luc reporter systems, specific activators for PLC/PKC and AC/PKA signaling pathways were used in control experiments.
(§4) Thus, the ability of the three novel piscine peptides (namely, NKBa, NKBb and NKF, denoted by SEQ ID NO.40, 41 and 42), as well as the ability of the three analogous agonistic peptides, namely, NKBa-analog, NKBb-analog and NKF-analog, to differentially activate the different tac3 receptors, using SRE as a reporter gene that follows PKC activation and CRE as a reporter gene for the PKA pathway, was tested. Human NK3R (human NKB receptor) and human NKB served as controls.

Test [2] relates to zfTac3rb. Put plainly: Receptor transactivation assay, CRE-Luc reporter (PKA activation), COS-7 cells expressing zfTac3rb. The format is cell-based, zebrafish. The conditions noted are these: mean ± SEM. As for the experimental part: as §1, §2, §3, §4
In test [3] the test system is zfTac3ra. In words: Receptor transactivation assay, SRE-Luc reporter (PKC activation), COS-7 cells expressing zfTac3ra. The format is cell-based, zebrafish. The conditions noted are these: mean ± SEM. On the procedure:
as §1, §2, §3, §4

Test [4] concerns zfTac3rb. Put plainly: Receptor transactivation assay, SRE-Luc reporter (PKC activation), COS-7 cells expressing zfTac3rb. The format is cell-based, zebrafish. Particulars: mean ± SEM. On the procedure:
as §1, §2, §3, §4

Test [5] addresses T1, zebrafish Tac3rb (tac3 receptor b, NKB receptor) (zebrafish).
T1 chain: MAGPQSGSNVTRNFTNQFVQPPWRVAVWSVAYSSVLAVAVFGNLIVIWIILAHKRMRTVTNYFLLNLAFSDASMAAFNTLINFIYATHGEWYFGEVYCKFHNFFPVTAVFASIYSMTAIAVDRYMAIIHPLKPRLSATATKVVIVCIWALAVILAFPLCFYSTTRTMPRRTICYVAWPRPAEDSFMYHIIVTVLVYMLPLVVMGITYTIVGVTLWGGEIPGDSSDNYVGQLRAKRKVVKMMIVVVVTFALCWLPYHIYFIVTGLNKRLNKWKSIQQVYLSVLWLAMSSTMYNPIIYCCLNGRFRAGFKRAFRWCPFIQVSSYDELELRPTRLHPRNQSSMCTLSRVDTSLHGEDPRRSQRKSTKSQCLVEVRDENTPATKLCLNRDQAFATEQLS
Put plainly: cell-based or functional assay.

Test [6] deals with T2, zebrafish Tac3ra (tac3 receptor a, NKB receptor) (zebrafish).
T2 chain: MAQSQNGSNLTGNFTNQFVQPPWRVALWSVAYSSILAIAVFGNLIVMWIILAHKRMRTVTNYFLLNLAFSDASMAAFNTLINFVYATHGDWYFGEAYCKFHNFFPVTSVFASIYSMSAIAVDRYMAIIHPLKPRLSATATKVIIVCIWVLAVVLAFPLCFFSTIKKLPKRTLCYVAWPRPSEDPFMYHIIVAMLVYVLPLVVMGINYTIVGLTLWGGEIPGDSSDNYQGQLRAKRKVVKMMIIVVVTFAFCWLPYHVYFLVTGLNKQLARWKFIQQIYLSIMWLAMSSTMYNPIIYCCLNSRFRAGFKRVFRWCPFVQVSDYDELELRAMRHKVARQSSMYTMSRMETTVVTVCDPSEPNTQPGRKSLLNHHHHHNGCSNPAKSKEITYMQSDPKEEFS
Put plainly: cell-based or functional assay.

Test [7] concerns the target T1, zebrafish Tac3rb (tac3 receptor b, NKB …). In words: cell-based or functional assay.
Test [8] has as its target T2, zebrafish Tac3ra (tac3 receptor a, NKB …). Put plainly: cell-based or functional assay.
Test [9] concerns the target T1, zebrafish Tac3rb (tac3 receptor b, NKB …). In words: cell-based or functional assay.
Test [10] concerns the target T2, zebrafish Tac3ra (tac3 receptor a, NKB …). In words: cell-based or functional assay.
Test [11] addresses T3, human NK3R (human NKB receptor) (human, UniProt P29371 1-465).
T3 sequence (looked up): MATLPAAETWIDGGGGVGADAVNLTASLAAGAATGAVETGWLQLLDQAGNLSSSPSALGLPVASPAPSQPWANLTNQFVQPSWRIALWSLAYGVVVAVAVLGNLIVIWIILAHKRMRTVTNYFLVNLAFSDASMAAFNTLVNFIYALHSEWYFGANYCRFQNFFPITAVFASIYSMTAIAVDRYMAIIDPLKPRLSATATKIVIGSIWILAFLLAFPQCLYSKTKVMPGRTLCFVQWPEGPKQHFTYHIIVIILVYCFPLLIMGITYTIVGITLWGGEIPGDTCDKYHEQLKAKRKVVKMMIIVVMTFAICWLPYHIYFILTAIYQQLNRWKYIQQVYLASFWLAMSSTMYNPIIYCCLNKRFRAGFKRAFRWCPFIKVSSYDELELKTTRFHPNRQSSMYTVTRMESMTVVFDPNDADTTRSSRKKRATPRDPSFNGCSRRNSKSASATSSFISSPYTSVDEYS
Put plainly: cell-based or functional assay.

For test [12], the target named is T3, human NK3R (human NKB receptor). Put plainly: cell-based or functional assay. The source holds these as a separate data set.
Test [13] shares this target. Put plainly: cell-based or functional assay. The source holds these as a separate data set.

*1 amine or outer side, *2 acyl side, *3 side chain or, on linkers, in order; H or OH if unused. Where no end group is shown, it is not given here. [ ]: non-standard residue; d: D form. NMeF = CN[C@@H](Cc1ccccc1)C(=O)O; Suc = O=C(CCC(=O)[*:2])[*:1]; NMeV = CN[C@H](C(=O)O)C(C)C

These results are taken from patent publication US20150072933A1, “NOVEL SEQUENCES FOR THE CONTROL OF REPRODUCTION IN FISH” (Yissum Research Development Company of the Hebrew …, priority 2011, published 2015).

Regarding `CSCC[C@H](NC(=O)[C@H](CC(C)C)NC(=O)CNC(=O)[C@@H](NC(=O)[C@H](Cc1ccccc1)NC(=O)[C@H](Cc1ccccc1)NC(=O)[C@H](CC(=O)O)NC(=O)[C@H](Cc1c[nH]cn1)NC(=O)[C@H](CCSC)NC(=O)[C@@H](N)CC(=O)O)C(C)C)C(N)=O` [huNKB, reference compound], the EC50 (commonly the concentration that produces a half-maximal response) in the test on zfTac3ra [1] (Table 5, COS-7 cells, CRE-Luc follows PKA activation, read-out: EC50 CRE-Luc zfTac3ra) came out at 12.9 ± 13.3 nM; in the test on zfTac3ra [1] (Table 6 (native peptides and analogues), PKA activation, read-out: EC50 using CRE-Luc, zfTac3ra), 12.9 ± 13.3 nM; with zfTac3rb [2] (Table 5, COS-7 cells, CRE-Luc follows PKA activation, read-out: EC50 CRE-Luc zfTac3rb), 8.12 ± 1.56 nM; in the test on zfTac3rb [2] (Table 6 (native peptides and analogues), PKA activation, read-out: EC50 using CRE-Luc, zfTac3rb), 8.12 ± 1.56 nM; in the test on zfTac3ra [3] (Table 5, COS-7 cells, SRE-Luc follows PKC activation, read-out: EC50 SRE-Luc zfTac3ra), 2.2 ± 1.49 nM; in the test with zfTac3ra [3] (Table 7 (native peptides and analogues), PKC activation, read-out: EC50 using SRE, zfTac3ra), 2.2 ± 1.49 nM. For the same molecule, the EC50 in the test with zfTac3rb [4] (Table 5, COS-7 cells, SRE-Luc follows PKC activation, read-out: EC50 SRE-Luc zfTac3rb) was determined as 0.82 ± 0.16 nM; in the test with zfTac3rb [4] (Table 7 (native peptides and analogues), PKC activation, read-out: EC50 using SRE, zfTac3rb), 0.82 ± 0.16 nM.

B1: Senktide (Succ-Asp-Phe-N(Me)Phe-Gly-Leu-Met-NH2) (peptide)
peptide: Suc-DF[NMeF]GLM-NH2
On to B1, for which the “EC50, CRE-Luc reporter (PKA activation), transfected COS-7 cells” value (“EC50, CRE-Luc reporter (PKA activation)” for short) worked out at 20.1 nM in test [5] and 49 nM in test [6]. Further, the “EC50, SRE-Luc reporter (PKC activation), transfected COS-7 cells” value (from here on “EC50, SRE-Luc reporter (PKC activation)”) in test [5] was 2.72 nM; in test [6], 2.67 nM. Also, the “EC50, CRE-Luc to follow PKA activation, transfected COS-7 cells” value (from here on “EC50, CRE-Luc to follow PKA activation”) came to 20.1 nM in [7] and 49 nM in [8]. In addition, the “EC50, SRE reporter gene that follows PKC activation, transfected COS-7 cells” value in [9] was determined as 2.72 nM; in test [10] it was 2.68 nM.

B2: Zebrafish Tac3a peptide, neurokinin Ba (EMHDIFVGLM-NH2) (peptide)
peptide: EMHDIFVGLM-NH2
Consider B2, for which the “EC50, CRE-Luc reporter (PKA activation)” value in [5] was 4.55 nM; in test [11], 3.73 nM; in test [6] it was 5.75 nM. For the same molecule, the “EC50, SRE-Luc reporter (PKC activation)” value in test [5] amounted to 1.47 nM; in test [11], 0.49 nM; in test [6], 0.5 nM. The “EC50, CRE-Luc to follow PKA activation” value was determined as 16.4 nM in test [7], 6.64 nM in [12] and 4.75 nM in test [8]. Further, the “EC50, SRE reporter gene that follows PKC activation, transfected COS-7 cells” value in [9] is 26.1 nM; in test [13] it was 0.49 nM; in test [10] it was 0.62 nM.

B3: NKF-analog (Succ-Asp-Ser-Phe-N(Me)Val-Gly-Leu-Met-NH2) (peptide)
peptide: XDSFXGLM
modifications: N-terminal succinyl (Succ) on Asp; N(Me)Val; C-terminal amide (-NH2)
For the molecule B3, the “EC50, CRE-Luc to follow PKA activation” value came to 7.75 nM in test [7], 7.33 nM in test [12] and 9.14 nM in test [8]. For the same molecule, the “EC50, SRE reporter gene that follows PKC activation, transfected COS-7 cells” value in test [9] was determined as 0.54 nM; in [13], 0.71 nM; in test [10], 0.31 nM.

B4: NKBa-analog (Succ-Asp-Ile-Phe-N(Me)Val-Gly-Leu-Met-NH2) (peptide)
peptide: Suc-DIF[NMeV]GLM-NH2
SMILES: CC[C@H](C)[C@H](NC(=O)[C@H](CC(=O)O)NC(=O)CCC(=O)O)C(=O)N[C@@H](Cc1ccccc1)C(=O)N(C)[C@H](C(=O)NCC(=O)N[C@@H](CC(C)C)C(=O)N[C@@H](CCSC)C(N)=O)C(C)C
For B4, the “EC50, CRE-Luc to follow PKA activation” value in test [7] is 11.9 nM; in test [12], 16.8 nM; in test [8], 6.94 nM. In addition, the “EC50, SRE reporter gene that follows PKC activation, transfected COS-7 cells” value in [9] stood at 0.29 nM; in test [13], 3.44 nM; in test [10], 0.15 nM.

B5: NKBb-analog (Succ-Asp-Phe-N(Me)Val-Gly-Leu-Met-NH2) (peptide)
peptide: Suc-DF[NMeV]GLM-NH2
On to B5, for which the “EC50, CRE-Luc to follow PKA activation” value in test [7] worked out at 2.18 nM; in test [12] it was 2.19 nM; in test [8], 1.68 nM. The “EC50, SRE reporter gene that follows PKC activation, transfected COS-7 cells” value in [9] stood at 0.23 nM; in [13], 0.94 nM; in test [10], 0.06 nM.

B6: human NKB (neurokinin B) (peptide)
peptide: DMHDFFVGLM-NH2
B6: the “EC50, CRE-Luc reporter (PKA activation)” value in test [5] amounted to 8.12 nM; in test [6] it was 12.9 nM. The “EC50, SRE-Luc reporter (PKC activation)” value in test [5] stood at 0.82 nM; in test [6] it was 2.2 nM. Also, the “EC50, CRE-Luc to follow PKA activation” value is 8.12 nM in test [7] and 12.9 nM in [8]. Further, the “EC50, SRE reporter gene that follows PKC activation, transfected COS-7 cells” value in [9] came out at 0.82 nM; in [10] it was 2.2 nM.
